Experimental data: patent US20200079848A1 (Five Prime, published 2020)
“And” between values parts separate entries of the source, which are not always exact repeats. Equal values may be shown once.

How the values were obtained:
[1] = molecular target: T1, cyno ILT4 9152 extracellular domain, including His-Avi Tag (cynomolgus monkey); test: SPR ProteOn XPR36, 37 C; antibody amine-coupled to GLC chip, ILT4 ECD-His-Avi as analyte; kinetic titration
Protocol: (§1) The antibody was amine-coupled to a GLC sensor chip in a Proteon XPR36 instrument (BioRad). […] All data were double-referenced, exported, and analyzed with BIAevaluation Software 4.1.1 using the kinetic titration model described by Karlsson et al (Karlsson et al. (2005) Analytical Biochem. 349:136). The running buffer consisted of 10 mM HEPES pH 7.4, 150 mM NaCl and 0.05% Tween-20. The assay temperature was 37° C.

hILT4-His-Avi tag [2] = molecular target: T2, hILT4-His-Avi tag (human, UniProt Q8N423 22-459); test: as above
T2 construct: also called monomeric human ILT4; extracellular region of hILT4 linked to a His-Avi tag
Protocol: as §1

hILT4-His-Avi tag [3] = molecular target: T2, hILT4-His-Avi tag; test: SPR Biacore T200, 37 C; antibody captured on protein A/G chip, monomeric hILT4 as analyte; kinetic fit
[4] = molecular target: T1, cyno ILT4 9152 extracellular domain, …; test: SPR ProteOn XPR36, 37 C; antibody amine-coupled to GLC chip, ILT4 ECD-His-Avi as analyte
Protocol: as §1

[5] = molecular target: T3, human ILT4 (hILT4) expressed on cells (human, UniProt Q8N423 22-597); test: flow cytometry on hILT4-transfected CHO cells, PE anti-human IgG secondary, GMFI (PE); EC50 from the table below the graph; the table has no unit, the concentration axis is in ug/mL
T3 construct: hILT4 on transfected CHO or 293T cells, or native on human monocytes and macrophages; also called LILRB2

hILT4-His-Avi tag [6] = molecular target: T2, hILT4-His-Avi tag; test: SPR Biacore T200, 37 C; antibody captured by anti-human Fc on CM4 chip, hILT4-His-Avi as analyte; 1:1 Langmuir fit
Protocol: The running buffer was 10 mM HEPES pH 7.4 supplemented with 0.05% Tween-20 and 1 g/L BSA. All anti-ILT4 antibodies were captured on a CM4 chip with pre-immobilized anti-human Fc capture antibody from Southern Biotech (catalog number 2081-01). […] All data were double-referenced and fitted to a 1:1 Langmuir model with mass transport using Biacore T200 Evaluation Software version 3.1.

human LILRA5 = molecular target: T4, human LILRA5 (human, UniProt A6NI73 42-299); test: flow cytometry, 293T transfectants, antibody 20 µg/ml; stacked histograms, control: parental cells
T4 construct: whole, on cells; also called hLILRA5
Protocol: (§2) Individual ILT family members were overexpressed in 293T cells. Each transfectant was stained with 20 μg/ml of anti-ILT4 antibodies followed by 1 μg/ml of anti-human IgG secondary mAb. Binding of the antibodies to each transfectant was measured by flow cytometry.

human LIR8 = molecular target: T5, human LIR8 (human, UniProt O75023 24-590); test: as above
T5 construct: whole, on cells; also called hLIR8
Protocol: as §2

human LILRA6 = molecular target: T6, human LILRA6 (human, UniProt Q6PI73 24-481); test: as above
T6 construct: whole, on cells; also called hLILRA6
Protocol: as §2

human LILRA2 = molecular target: T7, human LILRA2 (human, UniProt Q8N149 24-483); test: as above
T7 construct: whole, on cells; also called hLILRA2
Protocol: as §2

human ILT3 = molecular target: T8, human ILT3 (human, UniProt Q8NHJ6 22-448); test: as above
T8 construct: whole, on cells; also called hILT3
Protocol: as §2

human ILT2 = molecular target: T9, human ILT2 (human, UniProt Q8NHL6 24-650); test: as above
T9 construct: whole, on cells; also called hILT2
Protocol: as §2

human ILT5 = molecular target: T10, human ILT5 (human, UniProt O75022 24-631); test: as above
T10 construct: whole, on cells; also called hILT5; LILRB3
Protocol: as §2

human LILRA4 = molecular target: T11, human LILRA4 (human, UniProt P59901 24-499); test: as above
T11 construct: whole, on cells; also called hLILRA4
Protocol: as §2

human LILRA3 = molecular target: T12, human LILRA3 (human, UniProt Q8N6C8 24-439); test: antibody titration flow cytometry binding assay on transfected cells, nonlinear regression
T12 construct: whole, on cells; also called hLILRA3; LIRA3

[7] = molecular target: T3, human ILT4 (hILT4) expressed on cells; test: as above
human LILRA1 = molecular target: T13, human LILRA1 (human, UniProt O75019 17-489); test: as above
T13 construct: whole, on cells; also called hLILRA1; LIRA1

[8] = molecular target: T3, human ILT4 (hILT4) expressed on cells; test: flow cytometry cross-blocking on hILT4 CHO cells: unlabelled antibody titrated from 40 µg/mL, then PE-21D9.IgG1.1f at 1.5 µg/mL; competitor: PE-21D9; the 21A5 curve does NOT fall: GMFI (PE) goes from about 615 up to about 665, no blocking of PE-21D9; the printed EC50 belongs to this small rise; table without unit, axis in µg/mL
Excerpt: (§3) After washing, the samples were acquired on a FACSCanto™ cytometer (BD Bioscience, San Jose) and analyzed with Flowjo™ software (Tree Star, Inc, Ashland, Oreg.).

[9] = molecular target: T3, human ILT4 (hILT4) expressed on cells; test: flow cytometry cross-blocking on hILT4 CHO cells: unlabelled antibody titrated from 40 µg/mL, then PE-2H2.IgG1.1f at 1.5 µg/mL; competitor: PE-2H2; GMFI (PE) falls from about 330 to about 25; the table calls the value EC50 and has no unit, the concentration axis is in µg/mL
Excerpt: as §3

rhILT4-Fc [10] = molecular target: T14, rhILT4-Fc (human, UniProt Q8N423-1 22-461); test: flow cytometry blocking assay: antibody titrated (12 points) with rhILT4-Fc fixed at 30 µg/ml; rhILT4-Fc bound to HLA-B overexpressing CHO cells read as % Positive; blocked ligand: HLA-B; the IC50 table has no unit, the concentration axis is in ug/mL
T14 construct: also called rhILT4-Fc fusion protein with a murine Fc tail; not shown: murine Fc tail

rhILT4-Fc [11] = molecular target: T14, rhILT4-Fc; test: flow cytometry blocking assay: antibody titrated (12 points) with rhILT4-Fc fixed at 30 µg/ml; rhILT4-Fc bound to HLA-A overexpressing CHO cells read as % Positive; blocked ligand: HLA-A; the IC50 table has no unit, the concentration axis is in ug/mL

T3 sequence (Q8N423 other isoform, or with tags, fused parts or gaps): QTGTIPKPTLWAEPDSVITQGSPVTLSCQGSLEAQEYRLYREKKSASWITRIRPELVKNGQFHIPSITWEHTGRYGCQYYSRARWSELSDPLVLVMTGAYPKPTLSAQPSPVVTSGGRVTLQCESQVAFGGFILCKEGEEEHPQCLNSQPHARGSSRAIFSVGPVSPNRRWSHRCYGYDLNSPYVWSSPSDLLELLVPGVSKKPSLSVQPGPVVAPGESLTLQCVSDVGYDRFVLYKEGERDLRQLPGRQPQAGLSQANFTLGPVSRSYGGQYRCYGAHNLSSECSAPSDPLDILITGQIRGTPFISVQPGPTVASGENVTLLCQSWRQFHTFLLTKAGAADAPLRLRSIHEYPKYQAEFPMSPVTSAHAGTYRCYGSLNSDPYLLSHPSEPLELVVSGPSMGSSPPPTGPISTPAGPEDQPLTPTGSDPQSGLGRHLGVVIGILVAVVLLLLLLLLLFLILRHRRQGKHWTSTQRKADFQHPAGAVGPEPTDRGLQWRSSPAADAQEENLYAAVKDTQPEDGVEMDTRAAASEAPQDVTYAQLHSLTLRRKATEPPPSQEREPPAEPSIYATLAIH
T2 sequence (Q8N423 other isoform, or with tags, fused parts or gaps): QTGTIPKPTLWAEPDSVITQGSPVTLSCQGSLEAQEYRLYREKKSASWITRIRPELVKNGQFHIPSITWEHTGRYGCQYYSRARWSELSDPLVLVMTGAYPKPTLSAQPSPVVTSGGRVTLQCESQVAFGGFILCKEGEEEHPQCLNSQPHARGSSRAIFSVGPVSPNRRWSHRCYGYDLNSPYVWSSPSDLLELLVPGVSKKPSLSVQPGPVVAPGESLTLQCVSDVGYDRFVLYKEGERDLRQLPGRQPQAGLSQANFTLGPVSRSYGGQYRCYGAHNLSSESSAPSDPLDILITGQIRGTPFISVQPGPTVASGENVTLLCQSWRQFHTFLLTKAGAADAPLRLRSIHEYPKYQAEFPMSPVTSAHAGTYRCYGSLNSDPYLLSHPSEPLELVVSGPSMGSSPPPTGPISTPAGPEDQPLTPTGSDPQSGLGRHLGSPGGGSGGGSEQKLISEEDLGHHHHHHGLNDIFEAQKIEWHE
T1 sequence (chain, as listed by the source limits assumed): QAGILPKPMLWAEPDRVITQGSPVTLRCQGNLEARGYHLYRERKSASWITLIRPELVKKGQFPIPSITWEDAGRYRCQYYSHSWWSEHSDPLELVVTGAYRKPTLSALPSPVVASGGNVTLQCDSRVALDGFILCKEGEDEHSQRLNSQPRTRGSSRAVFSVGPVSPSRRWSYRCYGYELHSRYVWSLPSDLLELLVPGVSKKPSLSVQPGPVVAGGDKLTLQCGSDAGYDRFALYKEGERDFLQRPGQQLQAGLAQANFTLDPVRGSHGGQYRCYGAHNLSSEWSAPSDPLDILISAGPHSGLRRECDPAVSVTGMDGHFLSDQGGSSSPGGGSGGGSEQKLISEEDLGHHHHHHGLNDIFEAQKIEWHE
T14 sequence (Q8N423 other isoform, or with tags, fused parts or gaps): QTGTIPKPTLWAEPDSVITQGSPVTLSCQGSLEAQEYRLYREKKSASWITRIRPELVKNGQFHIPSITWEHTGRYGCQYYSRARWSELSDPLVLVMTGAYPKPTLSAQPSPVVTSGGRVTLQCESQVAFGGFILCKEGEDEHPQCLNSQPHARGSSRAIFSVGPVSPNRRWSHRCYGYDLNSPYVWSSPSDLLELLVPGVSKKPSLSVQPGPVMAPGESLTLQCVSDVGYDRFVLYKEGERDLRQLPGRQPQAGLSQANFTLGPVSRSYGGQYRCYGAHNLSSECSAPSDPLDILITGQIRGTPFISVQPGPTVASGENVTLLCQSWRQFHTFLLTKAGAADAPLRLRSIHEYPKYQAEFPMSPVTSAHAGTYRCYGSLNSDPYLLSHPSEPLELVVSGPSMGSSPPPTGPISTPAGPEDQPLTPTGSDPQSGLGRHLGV
T5 sequence (O75023 24-590): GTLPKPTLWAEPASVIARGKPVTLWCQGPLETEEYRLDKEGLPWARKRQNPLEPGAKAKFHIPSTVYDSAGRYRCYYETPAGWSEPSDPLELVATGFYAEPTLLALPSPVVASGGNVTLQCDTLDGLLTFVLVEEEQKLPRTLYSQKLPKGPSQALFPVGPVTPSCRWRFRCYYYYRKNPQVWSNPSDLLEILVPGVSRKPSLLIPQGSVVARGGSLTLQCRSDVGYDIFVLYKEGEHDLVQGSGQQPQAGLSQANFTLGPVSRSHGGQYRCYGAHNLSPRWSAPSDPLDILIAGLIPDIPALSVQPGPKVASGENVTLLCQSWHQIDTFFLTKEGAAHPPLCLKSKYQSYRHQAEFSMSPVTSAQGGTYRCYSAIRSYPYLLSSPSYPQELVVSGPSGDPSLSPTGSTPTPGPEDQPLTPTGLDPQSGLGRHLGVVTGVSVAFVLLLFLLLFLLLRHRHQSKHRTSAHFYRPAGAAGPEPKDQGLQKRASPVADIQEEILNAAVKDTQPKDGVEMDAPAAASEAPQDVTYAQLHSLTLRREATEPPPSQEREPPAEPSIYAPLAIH
T4 sequence (A6NI73 42-299): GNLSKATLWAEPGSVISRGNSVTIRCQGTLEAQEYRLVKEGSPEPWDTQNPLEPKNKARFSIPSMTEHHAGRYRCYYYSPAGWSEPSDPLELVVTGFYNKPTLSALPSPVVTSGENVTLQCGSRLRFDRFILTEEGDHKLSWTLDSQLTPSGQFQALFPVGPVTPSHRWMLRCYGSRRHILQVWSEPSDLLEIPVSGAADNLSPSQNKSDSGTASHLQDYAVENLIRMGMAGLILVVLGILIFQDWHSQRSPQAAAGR
T11 sequence (P59901 24-499): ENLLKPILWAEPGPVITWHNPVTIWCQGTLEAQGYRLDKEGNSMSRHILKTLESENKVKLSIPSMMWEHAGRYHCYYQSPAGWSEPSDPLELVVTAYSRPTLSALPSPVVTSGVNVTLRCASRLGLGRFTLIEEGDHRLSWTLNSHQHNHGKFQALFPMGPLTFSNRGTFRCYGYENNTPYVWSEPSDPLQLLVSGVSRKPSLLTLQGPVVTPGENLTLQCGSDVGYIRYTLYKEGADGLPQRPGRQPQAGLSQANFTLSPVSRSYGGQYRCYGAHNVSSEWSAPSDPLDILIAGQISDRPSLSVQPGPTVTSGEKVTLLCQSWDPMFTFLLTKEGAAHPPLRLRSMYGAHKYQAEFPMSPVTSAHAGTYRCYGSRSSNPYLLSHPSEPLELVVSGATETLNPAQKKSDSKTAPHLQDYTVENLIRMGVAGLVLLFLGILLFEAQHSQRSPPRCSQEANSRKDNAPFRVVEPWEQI
T13 sequence (O75019 17-489): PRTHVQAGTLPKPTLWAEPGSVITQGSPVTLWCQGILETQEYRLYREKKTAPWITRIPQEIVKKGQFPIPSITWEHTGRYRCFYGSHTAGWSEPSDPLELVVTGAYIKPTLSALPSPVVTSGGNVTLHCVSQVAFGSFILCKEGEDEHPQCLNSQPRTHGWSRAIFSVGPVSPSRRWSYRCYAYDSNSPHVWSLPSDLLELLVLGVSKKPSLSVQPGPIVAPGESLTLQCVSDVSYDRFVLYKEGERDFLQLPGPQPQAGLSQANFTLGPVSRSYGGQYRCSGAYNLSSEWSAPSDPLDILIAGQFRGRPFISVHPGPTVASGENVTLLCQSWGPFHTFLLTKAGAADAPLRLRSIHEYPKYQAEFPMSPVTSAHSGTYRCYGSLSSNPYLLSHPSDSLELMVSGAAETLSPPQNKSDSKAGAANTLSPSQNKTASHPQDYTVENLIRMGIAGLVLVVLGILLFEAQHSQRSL
T7 sequence (Q8N149 24-483): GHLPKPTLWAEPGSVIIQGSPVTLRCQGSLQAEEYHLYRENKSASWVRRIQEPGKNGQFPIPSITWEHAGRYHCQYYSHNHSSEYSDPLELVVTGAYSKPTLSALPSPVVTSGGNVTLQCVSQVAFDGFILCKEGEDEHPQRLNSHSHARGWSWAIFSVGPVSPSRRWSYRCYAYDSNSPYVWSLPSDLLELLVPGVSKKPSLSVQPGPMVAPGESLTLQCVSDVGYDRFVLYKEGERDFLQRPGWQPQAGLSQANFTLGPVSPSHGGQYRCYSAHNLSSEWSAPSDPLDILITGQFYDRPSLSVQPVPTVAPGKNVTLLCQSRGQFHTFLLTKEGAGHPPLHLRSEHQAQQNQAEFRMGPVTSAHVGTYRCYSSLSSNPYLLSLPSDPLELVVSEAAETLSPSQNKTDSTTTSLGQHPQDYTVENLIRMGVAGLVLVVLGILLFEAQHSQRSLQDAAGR
T12 sequence (Q8N6C8 24-439): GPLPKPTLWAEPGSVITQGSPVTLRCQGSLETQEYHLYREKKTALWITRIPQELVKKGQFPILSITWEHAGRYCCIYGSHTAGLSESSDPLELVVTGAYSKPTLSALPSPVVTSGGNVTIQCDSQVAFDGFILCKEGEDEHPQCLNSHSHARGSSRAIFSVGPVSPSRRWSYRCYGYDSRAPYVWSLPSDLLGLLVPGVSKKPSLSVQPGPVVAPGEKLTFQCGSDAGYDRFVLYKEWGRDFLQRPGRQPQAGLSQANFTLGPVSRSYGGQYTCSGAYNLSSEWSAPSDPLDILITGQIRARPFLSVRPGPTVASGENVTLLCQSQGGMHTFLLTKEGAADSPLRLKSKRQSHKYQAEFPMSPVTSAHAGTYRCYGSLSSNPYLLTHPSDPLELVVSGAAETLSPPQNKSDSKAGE

B1: 21D9.IgG1.3 (antibody)
heavy: EGQLLESGGDLVQPGGSLRLSCATSGFTFSNYAMNWVRQAPGKGLEWISVISVSGGSTYYADSVKGRFTISRDNSKNTLYLQMNSLRAEDTAVYYCAKDYYYDSGSYYDSFFDYWGQGTLVTVSSASTKGPSVFPLAPSSKSTSGGTAALGCLVKDYFPEPVTVSWNSGALTSGVHTFPAVLQSSGLYSLSSVVTVPSSSLGTQTYICNVNHKPSNTKVDKRVEPKSCDKTHTCPPCPAPEAEGAPSVFLFPPKPKDTLMISRTPEVTCVVVDVSHEDPEVKFNWYVDGVEVHNAKTKPREEQYNSTYRVVSVLTVLHQDWLNGKEYKCKVSNKALPAPIEKTISKAKGQPREPQVYTLPPSREEMTKNQVSLTCLVKGFYPSDIAVEWESNGQPENNYKTTPPVLDSDGSFFLYSKLTVDKSRWQQGNVFSCSVMHEALHNHYTQKSLSLSPG
light: not shown
notes: also called 21D9 WT; ILT4.6.IgG1.3
- Kd [1]: 4000 pM
- koff [1]: 0.0035 s⁻¹
- kon [1]: 880000 M⁻¹ s⁻¹
- Kd (hILT4-His-Avi tag [2]): 320 pM
- koff (hILT4-His-Avi tag [2]): 0.00026 s⁻¹
- kon (hILT4-His-Avi tag [2]): 820000 M⁻¹ s⁻¹
- Kd (hILT4-His-Avi tag [3]): 310 pM and 320 pM and 370 pM
- koff (hILT4-His-Avi tag [3]): 0.001 s⁻¹ and 0.0011 s⁻¹
- kon (hILT4-His-Avi tag [3]): 3.3e+06 M⁻¹ s⁻¹ and 3.2e+06 M⁻¹ s⁻¹ and 3e+06 M⁻¹ s⁻¹
- fold weaker affinity than for human ILT4 [4]: ~12 fold
- EC50 [5]: 0.0127 µg/mL
- Kd (hILT4-His-Avi tag [6]): 500 pM
- app. act. (hILT4-His-Avi tag [6]): 70%
- koff (hILT4-His-Avi tag [6]): 0.00054 s⁻¹
- kon (hILT4-His-Avi tag [6]): 1.1e+06 M⁻¹ s⁻¹

B2: 21A5.IgG1.3 (antibody, V domains shown)
VH: QVQLVQSGAEVKKPGASVKVSCKASGYTFTDYYLHWVRQAPGQGLEWMGIFHPSGDITSSAQNFQGRVTMIRDTSTSTVYMELSSLRSEDTAVYYCARGGVLRYLDWSHAFDIWGQGTMVTVSS
VL: EIALTQSPGTLSLSPGERATLSCRASQSVSSSYLAWYQQKPGQAPRLLIYGASSRATGIPDRFSGSGSGTDFTLTISRLEPEDFAVYYCQQYGSTFGGGTKVEIKR
notes: Fully human antibody, IgG1.3, kappa; also called 21A5 WT; 21A5WT
- binding result (human LILRA5): no binding (tested: 20 µg/ml)
- binding result (human LIR8): no binding (tested: 20 µg/ml)
- binding result (human LILRA6): no binding (tested: 20 µg/ml)
- binding result (human LILRA2): no binding (tested: 20 µg/ml)
- binding result (human ILT3): no binding (tested: 20 µg/ml)
- binding result (human ILT2): no binding (tested: 20 µg/ml)
- binding result (human ILT5): no binding (tested: 20 µg/ml)
- binding result (human LILRA4): no binding (tested: 20 µg/ml)
- EC50 (human LILRA3): 9.18 µg/mL
- EC50 [7]: 0.091 µg/mL
- EC50 (human LILRA1): 12.5 µg/mL
- Kd (hILT4-His-Avi tag [3]): 140 pM
- app. act. (hILT4-His-Avi tag [3]): 126%
- koff (hILT4-His-Avi tag [3]): 0.00017 s⁻¹
- kon (hILT4-His-Avi tag [3]): 1.2e+06 M⁻¹ s⁻¹
- EC50 [8]: 0.0898 µg/mL
- EC50 [9]: 0.0738 µg/mL
- IC50 (rhILT4-Fc [10]): 1.61 µg/mL
- EC50 [5]: 0.0518 µg/mL
- Kd (hILT4-His-Avi tag [6]): 23 pM
- app. act. (hILT4-His-Avi tag [6]): 98%
- koff (hILT4-His-Avi tag [6]): 1.2e-05 s⁻¹
- kon (hILT4-His-Avi tag [6]): 520000 M⁻¹ s⁻¹
- IC50 (rhILT4-Fc [11]): 3.83 µg/mL
